Assay in all cases: EMSA; 5 mM Ca2+; EMSA: 40 mM Tris-acetate pH 8.3, 0.1 mg/ml BSA, 10% glycerol, 5 mM CaCl2 or 0.1 mM EDTA, 1 nM DNA, room temperature, 15 min
One data set deals with T1, BsaWI R130A (UniProt Q6UQ65 1-272, R130A).
T1 sequence: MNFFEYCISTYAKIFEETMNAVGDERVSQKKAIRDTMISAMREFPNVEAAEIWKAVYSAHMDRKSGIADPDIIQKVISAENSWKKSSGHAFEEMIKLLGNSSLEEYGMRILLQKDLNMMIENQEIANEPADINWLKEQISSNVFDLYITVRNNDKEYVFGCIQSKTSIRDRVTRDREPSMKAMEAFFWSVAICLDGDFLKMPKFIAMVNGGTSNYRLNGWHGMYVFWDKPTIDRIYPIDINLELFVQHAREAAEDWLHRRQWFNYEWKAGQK
As to conditions: protein: recombinant; chain copies: 2; label: 33P; blunt.

In the next data set the target is T2, BsaWI R259A (UniProt Q6UQ65 1-272, R259A).
T2 sequence: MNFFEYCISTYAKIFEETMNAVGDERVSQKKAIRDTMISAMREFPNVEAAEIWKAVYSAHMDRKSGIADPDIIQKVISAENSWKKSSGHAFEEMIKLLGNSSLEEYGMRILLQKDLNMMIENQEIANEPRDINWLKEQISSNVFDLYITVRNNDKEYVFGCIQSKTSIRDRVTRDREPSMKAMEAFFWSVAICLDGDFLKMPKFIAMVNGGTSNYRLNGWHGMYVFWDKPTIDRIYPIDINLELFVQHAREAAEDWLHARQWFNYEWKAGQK
As to conditions: protein: recombinant; chain copies: 2; label: 33P; blunt.

In a further data set the target is T3, BsaWI K85A (UniProt Q6UQ65 1-272, K85A).
T3 sequence: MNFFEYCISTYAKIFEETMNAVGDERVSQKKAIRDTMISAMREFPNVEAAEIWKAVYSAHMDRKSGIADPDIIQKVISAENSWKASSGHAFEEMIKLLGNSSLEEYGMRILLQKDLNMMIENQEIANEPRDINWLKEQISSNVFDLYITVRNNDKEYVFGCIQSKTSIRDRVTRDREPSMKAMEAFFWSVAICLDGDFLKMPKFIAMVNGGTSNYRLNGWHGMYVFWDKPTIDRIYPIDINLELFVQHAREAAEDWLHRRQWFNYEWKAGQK
As to conditions: protein: recombinant; chain copies: 4; label: 33P; blunt.

In another data set the target is T4, BsaWI E128A&W262A (UniProt Q6UQ65 1-272, E128A;W262A).
T4 sequence: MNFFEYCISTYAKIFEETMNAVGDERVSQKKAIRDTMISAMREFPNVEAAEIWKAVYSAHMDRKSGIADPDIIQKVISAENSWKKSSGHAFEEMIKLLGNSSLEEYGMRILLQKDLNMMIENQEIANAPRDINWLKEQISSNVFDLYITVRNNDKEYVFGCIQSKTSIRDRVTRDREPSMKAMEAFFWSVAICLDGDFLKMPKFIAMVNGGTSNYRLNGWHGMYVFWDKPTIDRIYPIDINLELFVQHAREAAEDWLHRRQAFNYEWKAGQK
The note with it: protein: recombinant; chain copies: 2; label: 33P; blunt.

A further data set deals with T5, BsaWI wt (UniProt Q6UQ65 1-272).
T5 sequence: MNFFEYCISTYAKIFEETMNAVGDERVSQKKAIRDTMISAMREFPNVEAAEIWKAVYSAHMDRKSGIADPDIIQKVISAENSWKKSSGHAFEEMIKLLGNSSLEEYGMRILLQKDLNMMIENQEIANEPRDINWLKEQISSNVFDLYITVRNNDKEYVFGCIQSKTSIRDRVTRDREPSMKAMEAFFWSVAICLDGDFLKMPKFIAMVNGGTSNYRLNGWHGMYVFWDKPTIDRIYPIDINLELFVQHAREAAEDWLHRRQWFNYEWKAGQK
The note with it: protein: recombinant; chain copies: 4; label: 33P; blunt.

B1: SP (dsDNA)
DNA 1: GCCTTTCGGTTTACCGGTGTCATTCCGCTG
DNA 2: CAGCGGAATGACACCGGTAAACCGAAAGGC
For B1, the Kd was 3.9 ± 0.6 nM with BsaWI R130A; 2 ± 0.3 nM with BsaWI R259A; 229 ± 9.1 nM with BsaWI K85A; 2.7 ± 0.7 nM in the data set with BsaWI E128A&W262A; 2.9 ± 0.4 nM with BsaWI wt.

For the origin of these results see PMC4652773, “Functional significance of protein assemblies predicted by the crystal structure of the restriction endonuclease BsaWI”.
